These results are taken from PMC2891831, “Insight into the Mechanisms of Adenovirus Capsid Disassembly from Studies of Defensin Neutralization” (PLoS Pathogens, 2010).

Assay [1] addresses HAdV-19c (virus particle) (human adenovirus 19c (HAdV-19c)). Kind of assay: co-sedimentation; as a1 but one concentration, 20 µM HD5; HD5 bound expressed as percent of HD5 bound to HAdV-5 in parallel samples.
For assay [2], the target named is HAdV-51p (virus particle) (human adenovirus 51 (HAdV-51p)). The description is as above.
For assay [3], the target named is HAdV-25p (virus particle) (human adenovirus 25 (HAdV-25p)). The assay is described as above.
For assay [4], the target named is HAdV-7p (virus particle) (human adenovirus 7 (HAdV-7p)). The description is as above.
Assay [5] addresses Ad5.eGFP, replication-defective HAdV-5 vector (virus particle) (human adenovirus 5 (HAdV-5)) (UniProt P04133). Nature of the assay: co-sedimentation; equilibrium-binding assay; HD5 serially diluted in PBS and mixed with 5 µg purified virus, 1 h on ice; virus/HD5 complex separated from unbound HD5 by ultracentrifugation on a discontinuous nycodenz gradient (50 mM NaCl, 20 mM HEPES pH 7.4, 4°C); bound HD5 quantified after SDS-PAGE (Deep Purple stain) against a standard curve; apparent affinity, no estimate of non-specific binding.

Turning to human alpha-defensin HD5 (peptide), the percent of the amount of HD5 bound to HAdV-5 came out at 32.5% in assay [1], 24.6% in assay [2], 3.3% in assay [3] and 69.3% in assay [4]. Also, the Kd in assay [5] was 14.5 µM. The stoichiometry N (HD5 molecules per virus particle) in assay [5] is 2750.
